Reference: patent publication US20030235860A1, “Interactions between AR, ER, TR2, and TR4” (priority 1999, published 2003)

T1: ER-ERE (Homo sapiens, UniProt P03372)
T1 construct: Human full-length ER was inserted into the EcoRI site of pSG5 to produce pSG5-ER; host or cells: TNT coupled reticulocyte lysate, in vitro translation
T1 sequence (P03372 1-595): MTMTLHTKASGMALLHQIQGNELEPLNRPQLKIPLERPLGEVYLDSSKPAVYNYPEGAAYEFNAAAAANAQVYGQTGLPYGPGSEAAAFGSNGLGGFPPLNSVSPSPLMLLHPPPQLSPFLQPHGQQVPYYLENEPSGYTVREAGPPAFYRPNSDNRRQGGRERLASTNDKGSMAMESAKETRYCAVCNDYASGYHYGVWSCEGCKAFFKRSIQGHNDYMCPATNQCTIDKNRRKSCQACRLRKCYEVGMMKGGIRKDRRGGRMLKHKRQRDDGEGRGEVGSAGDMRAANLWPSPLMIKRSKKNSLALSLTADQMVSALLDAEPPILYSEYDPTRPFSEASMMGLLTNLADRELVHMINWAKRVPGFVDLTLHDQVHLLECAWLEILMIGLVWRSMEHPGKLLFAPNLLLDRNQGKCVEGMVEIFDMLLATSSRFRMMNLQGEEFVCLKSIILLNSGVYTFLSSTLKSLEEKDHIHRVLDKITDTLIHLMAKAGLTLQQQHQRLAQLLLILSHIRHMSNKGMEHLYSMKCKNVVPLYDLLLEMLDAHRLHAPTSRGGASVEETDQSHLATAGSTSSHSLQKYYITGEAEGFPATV

B1: TR2: human testicular orphan nuclear receptor 2, 603 amino acids (protein, UniProt P13056 1-603, looked up)
chain: MATIEEIAHQIIEQQMGEIVTEQQTGQKIQIVTALDHNTQGKQFILTNHDGSTPSKVILARQDSTPGKVFLTTPDAAGVNQLFFTTPDLSAQHLQLLTDNSPDQGPNKVFDLCVVCGDKASGRHYGAVTCEGCKGFFKRSIRKNLVYSCRGSKDCIINKHHRNRCQYCRLQRCIAFGMKQDSVQCERKPIEVSREKSSNCAASTEKIYIRKDLRSPLTATPTFVTDSESTRSTGLLDSGMFMNIHPSGVKTESAVLMTSDKAESCQGDLSTLANVVTSLANLGKTKDLSQNSNEMSMIESLSNDDTSLCEFQEMQTNGDVSRAFDTLAKALNPGESTACQSSVAGMEGSVHLITGDSSINYTEKEGPLLSDSHVAFRLTMPSPMPEYLNVHYIGESASRLLFLSMHWALSIPSFQALGQENSISLVKAYWNELFTLGLAQCWQVMNVATILATFVNCLHNSLQQDKMSTERRKLLMEHIFKLQEFCNSMVKLCIDGYEYAYLKAIVLFSPDHPSLENMEQIEKFQEKAYVEFQDYITKTYPDDTYRLSRLLLRLPALRLMNATITEELFFKGLIGNIRIDSVIPHILKMEPADYNSQIIGHSI
modifications: full-length
notes: human testicular orphan nuclear receptor 2, 603 amino acids
B2: TR4: human testicular orphan nuclear receptor 4, SEQ ID NO:16; expressed from plasmid or in vitro translated (protein)
chain: MTSPSPRIQIISTDSAVASPQRIQGSEPASGPLSVFTSLNKEKIVTDQQTGQKIQIVTAVDASGSPKQQFILTSPDGAGTGKVILASPETSSAKQLIFTTSDNLVPGRIQIVTDSASVERLLGKTDVQRPQVVEYCVVCGDKASGRHYGAVSCEGCKGFFKRSVRKNLTYSCRSSQDCIINKHHRNRCQFCRLKKCLEMGMKMESVQSERKPFDVQREKPSNCAASTEKIYIRKDLRSPLIATPTFVADKDGARQTGLLDPGMLVNIQQPLIREDGTVLLATDSKAETSQGALGTLANVVTSLANLSESLNNGDTSEIQPEDQSASEITRAFDTLAKALNTTDSSSSPSLADGIDTSGGGSIHVISRDQSTPIIEVEGPLLSDTHVTFKLTMPSPMPEYLNVHYICESASRLLFLSMHRARSIPAFQGLGQDCNTSLVRACWNELFTLGLAQCAQVMSLSTILAAIVNHLQNSIQEDKLSGDRIKQVMEHIWKLQEFCNSMANWDIDGYEYAYLKAIVLFSPDHPGLTSTSQIEKFQEKAQMELQDYVQKTYSEDTYRLARILVRLPALRLMSSNITEELFFTGLIGNVSIDSIIPYILKMETAEYNGQITGVSL

How the values were obtained:
ERβ = target: T2, ERβ (Mus musculus, UniProt O08537); assay: ERβ-mediated transactivation (ERE reporter); type: cell-based
T2 construct: expressed in transfected cells; host or cells: HEK293 (TR2 experiment), H1299 (TR4 experiment)
Procedure: (A) TR2 repression of ER-mediated ERE-tk-CAT reporter genes in PC-3, H1299, MCF7, and T47D cells. Cells in 60-mm dishes were co-transfected with […] of ERE-CAT, pSG5-ER, and/or pCMV-TR2 by calcium phosphate precipitation methods. 1 mg of b-galactosidase expression plasmid, pCMV-b-gal, was used as an internal control for transfection efficiency. CAT activity is presented relative to the response to ethanol, which is set as one. (B) MCF7-pBIG and MCF7-TR2 cells were stably transfected with doxycycline-inducible pBIG2i and pBIG2I-FLAG-TR2 plasmids, respectively. Cells were transfected with […] of pCMV-b-gal and, after 16 hr, were treated with or without […] doxycycline. […] FLAG-TR2 induction was monitored by Western blotting using anti-FLAG antibody (M2), shown in the upper panel. […] Relative mRNA expression amounts were normalized by 28S expression and quantitated by ImageQuant V.1.2 (Molecular Dynamics). […] Luciferase activity was analyzed following manufacturer's instructions (Promega). […]
H1299 and MCF-7 cells were maintained in Dulbecco's modified eagle medium (DMEM) containing penicillin (25 units/ml), streptomycin (25 μg/ml), and 10% fetal calf serum (FBS). […] The CAT activity was visualized by Phosphorlmager (Molecular Dynamics) and quantitated by IMAGEQUANT software (Molecular Dynamics). The luciferase activity was determined by the Luminometer (Turner Designs).

ER-ERE = target: T1, ER-ERE; assay: EMSA with ERE probe; type: binding
PSA = assay: Northern blot of endogenous PSA in LNCaP cells; type: cell-based, human
Procedure: Total RNA from the DHT-treated transfected LNCaP cells was prepared by the ultracentrifugation method as described. Lee, et al., J: Biol. Chem. 273, 13437-13443 (1998). The probe was obtained from exon 3 of PSA gene and labeled with a-32p dCTP.
To rule out the potential artificial effects linked to transfected reporter assays, the expression of endogenous prostate specific antigen (PSA, an androgen target that is widely used as a marker for prostate cancer progression) in LNCaP cells was measured by Northern blot analysis. Total RNA (25 μg) from LNCaP cells, which were transfected with either pCMX-TR4 or pCMX vector using SuperFect (Qiagen), was applied into a formamide RNA gel, then transferred onto a Nylon membrane, and then hybridized with a 32P-PSA gene fragment from the exon 3. P-actin was used as an internal control. […] The level of secreted PSA protein in the medium measured by ELISA, also confirmed this conclusion. This in vivo TR4-mediated suppressive effect strongly supports the above reporter assays.
Total RNA from transfected LNCaP cells was prepared using TRIZOL reagents (Life Technology) as instructed by manufacturer. The probe was obtained from the PSA gene by PCR and labeled with 32P dCTP. Northern hybridization was performed as described previously [Mu X. M. et al. (2002) J Biol Chem 275:23877-23883].

T2 sequence (O08537 whole entry): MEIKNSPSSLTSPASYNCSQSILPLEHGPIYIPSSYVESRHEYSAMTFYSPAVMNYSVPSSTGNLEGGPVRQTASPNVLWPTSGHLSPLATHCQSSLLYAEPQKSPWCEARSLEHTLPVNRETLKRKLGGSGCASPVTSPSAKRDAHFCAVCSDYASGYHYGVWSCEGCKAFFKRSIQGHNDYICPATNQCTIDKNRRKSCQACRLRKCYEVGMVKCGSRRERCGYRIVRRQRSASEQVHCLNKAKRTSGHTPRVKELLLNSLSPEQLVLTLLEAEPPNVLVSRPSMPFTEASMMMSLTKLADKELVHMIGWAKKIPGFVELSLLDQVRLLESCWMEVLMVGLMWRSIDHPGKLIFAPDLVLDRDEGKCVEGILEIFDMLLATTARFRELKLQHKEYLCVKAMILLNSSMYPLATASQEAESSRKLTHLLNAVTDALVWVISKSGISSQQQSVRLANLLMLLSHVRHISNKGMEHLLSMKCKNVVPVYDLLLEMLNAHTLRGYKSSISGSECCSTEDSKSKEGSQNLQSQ

ER-[32P]ERE binding band (ER-ERE; increasing amounts of in vitro expressed TR4)	Molecule	ERβ-mediated transcription (ERE-Luc) (ERβ; HEK293 cells, TR2)	Intensity of ER-ERE supershift (ER-ERE; increasing amount of TR2, absence or presence of 1 μM E2, Example 1)	Intensity of ER-ERE complexes (ER-ERE; increasing amounts of TR2, absence or presence of 10 nM E2, Example 2)	PSA mRNA expression (PSA; LNCaP cells, 10 nM DHT, pCMV-TR2, Example 4)	E2-induced ERE-CAT activity, ERβ (ERβ; H1299 cells, 10 nM E2, increasing TR4 expression plasmid)	Expression of endogenous PSA transcript (PSA; LNCaP cells transfected with pCMX-TR4, absence or presence of 10 nM DHT)
	B1	suppress	decreased	decreased	suppresses		
reduced	B2					suppression of the E2-induced CAT activity in a dose-dependent manner	clearly repress
